Test results as given in US20230285582A1 (published 2023).
Numbering of substitutions follows the chain as printed. Names may count otherwise.

T1: cynomolgus monkey (Macaca fascicularis) TfR1 (cynomolgus monkey (Macaca fascicularis), UniProt Q5RDH6 89-760 (Pongo abelii entry), limits assumed)
T1 construct: also called cTfR1; cyTfR1
T1 chain: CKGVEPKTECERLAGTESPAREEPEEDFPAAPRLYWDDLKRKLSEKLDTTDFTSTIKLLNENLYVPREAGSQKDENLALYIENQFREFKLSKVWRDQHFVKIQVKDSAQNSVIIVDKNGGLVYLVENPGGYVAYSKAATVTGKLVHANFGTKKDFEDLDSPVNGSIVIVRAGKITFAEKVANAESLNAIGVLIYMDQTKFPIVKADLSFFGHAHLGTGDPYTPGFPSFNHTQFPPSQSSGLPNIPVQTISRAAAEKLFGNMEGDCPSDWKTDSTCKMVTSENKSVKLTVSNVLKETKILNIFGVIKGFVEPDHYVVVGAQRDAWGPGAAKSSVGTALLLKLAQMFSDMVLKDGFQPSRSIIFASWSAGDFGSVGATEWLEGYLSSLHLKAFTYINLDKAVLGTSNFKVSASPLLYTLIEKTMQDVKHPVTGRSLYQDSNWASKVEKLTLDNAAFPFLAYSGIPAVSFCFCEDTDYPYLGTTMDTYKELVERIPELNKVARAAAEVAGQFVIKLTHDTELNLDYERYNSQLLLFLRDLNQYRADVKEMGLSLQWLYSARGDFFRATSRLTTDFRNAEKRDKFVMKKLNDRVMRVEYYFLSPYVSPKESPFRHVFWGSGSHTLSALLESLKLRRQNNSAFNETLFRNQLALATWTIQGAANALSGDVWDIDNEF

B1: humanized anti-TfR Fab 5H12 VH5 (C33Y)/Vk4 (Fab, V domains shown)
VH: QVQLVQSGAEVKKPGASVKVSCKASGYSFTDYYINWVRQAPGQGLEWMGWIYPGSGNTRYSERFKGRVTITRDTSASTAYMELSSLRSEDTAVYYCAREDYYPYHGMDYWGQGTLVTVSS
VL: DIVMTQSPDSLAVSLGERATINCRASESVDGYDNSFMHWYQQKPGQPPKLLIFRASNLESGVPDRFSGSGSGTDFTLTISSLQAEDVAVYYCQQSSEDPWTFGQGTKLEIKR
B2: humanized anti-TfR Fab 5H12 VH5 (C33D)/Vk4 (Fab, V domains shown)
VH: B1 VH with Y33D
VL: B1 VL
B3: humanized anti-TfR Fab 5H12 VH5 (C33Y)/Vk3 (Fab, V domains shown)
VH: B1 VH
VL: B1 VL with M4L, G72R
B4: humanized anti-TfR Fab 3A4 VH3 (N54T)/Vk4 (Fab, V domains shown)
VH: EVQLVQSGSELKKPGASVKVSCTASGFNIKDDYMYWVRQPPGKGLEWIGWIDPETGDTEYASKFQDRVTVTADTSTNTAYMELSSLRSEDTAVYYCTLWLRRGLDYWGQGTLVTVSS
VL: DIVMTQSPLSLPVTPGEPASISCRSSKSLLHSNGYTYLFWFQQRPGQSPRLLIYRMSNLASGVPDRFSGSGSGTDFTLKISRVEAEDVGVYYCMQHLEYPFTFGGGTKVEIKR
B5: humanized anti-TfR Fab 3A4 VH3/Vk4 (Fab, V domains shown)
VH: B4 VH with T55N
VL: B4 VL
B6: humanized anti-TfR Fab 3A4 VH3 (N54S)/Vk4 (Fab, V domains shown)
VH: B4 VH with T55S
VL: B4 VL
B7: humanized anti-TfR Fab 3M12 VH3/Vk2 (Fab, V domains shown)
VH: QVQLQESGPGLVKPSQTLSLTCSVTGYSITSGYYWNWIRQPPGKGLEWMGYITFDGANNYNPSLKNRVSISRDTSKNQFSLKLSSVTAEDTATYYCTRSSYDYDVLDYWGQGTTVTVSS
VL: DIQMTQSPSSLSASVGDRVTITCRASQDISNFLNWYQQKPGQPVKLLIYYTSRLHSGVPSRFSGSGSGTDFTLTISSLQPEDFATYFCQQGHTLPYTFGQGTKLEIKR
B8: humanized anti-TfR Fab 3M12 VH3/Vk3 (Fab, V domains shown)
VH: B7 VH
VL: B7 VL with F87Y
B9: humanized anti-TfR Fab 3M12 VH4/Vk2 (Fab, V domains shown)
VH: B7 VH with S23T, M49I
VL: B7 VL
B10: conjugate of humanized anti-TfR Fab 5H12 VH5 (C33Y)/Vk4 with DMPK-targeting oligonucleotide ASO300 (Fab, V domains shown)
VH: B1 VH
VL: B1 VL
modifications: ASO300 oligonucleotide attached through a cleavable Val-Cit linker (Formula (C)); residue and chain not stated
notes: also called 5H12 (VH5-C33Y/Vk4) conjugate; DMPK oligo conjugate
B11: conjugate of humanized anti-TfR Fab 5H12 VH5 (C33D)/Vk4 with DMPK-targeting oligonucleotide ASO300 (Fab, V domains shown)
VH: B1 VH with Y33D
VL: B1 VL
modifications: ASO300 oligonucleotide attached through a cleavable Val-Cit linker (Formula (C)); residue and chain not stated
notes: also called 5H12 (VH5-C33D/Vk4) conjugate; DMPK oligo conjugate
B12: conjugate of humanized anti-TfR Fab 5H12 VH5 (C33Y)/Vk3 with DMPK-targeting oligonucleotide ASO300 (Fab, V domains shown)
VH: B1 VH
VL: B1 VL with M4L, G72R
modifications: ASO300 oligonucleotide attached through a cleavable Val-Cit linker (Formula (C)); residue and chain not stated
notes: also called 5H12 (VH5-C33Y/Vk3) conjugate
B13: conjugate of humanized anti-TfR Fab 3A4 VH3 (N54T)/Vk4 with DMPK-targeting oligonucleotide ASO300 (Fab, V domains shown)
VH: B4 VH
VL: B4 VL
modifications: ASO300 oligonucleotide attached through a cleavable Val-Cit linker (Formula (C)); residue and chain not stated
notes: also called 3A4 (VH3-N54T/Vk4) conjugate; DMPK oligo conjugate
B14: conjugate of humanized anti-TfR Fab 3A4 VH3/Vk4 with DMPK-targeting oligonucleotide ASO300 (Fab, V domains shown)
VH: B4 VH with T55N
VL: B4 VL
modifications: ASO300 oligonucleotide attached through a cleavable Val-Cit linker (Formula (C)); residue and chain not stated
notes: also called 3A4 (VH3/Vk4) conjugate; DMPK oligo conjugate
B15: conjugate of humanized anti-TfR Fab 3A4 VH3 (N54S)/Vk4 with DMPK-targeting oligonucleotide ASO300 (Fab, V domains shown)
VH: B4 VH with T55S
VL: B4 VL
modifications: ASO300 oligonucleotide attached through a cleavable Val-Cit linker (Formula (C)); residue and chain not stated
notes: also called 3A4 (VH3-N54S/Vk4) conjugate; DMPK oligo conjugate
B16: conjugate of humanized anti-TfR Fab 3M12 VH3/Vk2 with DMPK-targeting oligonucleotide ASO300 (Fab, V domains shown)
VH: B7 VH
VL: B7 VL
modifications: ASO300 oligonucleotide attached through a cleavable Val-Cit linker (Formula (C)); residue and chain not stated
notes: also called 3M12 (VH3/Vk2) conjugate; DMPK oligo conjugate
B17: conjugate of humanized anti-TfR Fab 3M12 VH4/Vk3 with DMPK-targeting oligonucleotide ASO300 (Fab, V domains shown)
VH: B7 VH with S23T, M49I
VL: B7 VL with F87Y
modifications: ASO300 oligonucleotide attached through a cleavable Val-Cit linker (Formula (C)); residue and chain not stated
notes: also called 3M12 (VH4/Vk3) conjugate; DMPK oligo conjugate
B18: anti-TfR Fab 3M12 VH4/Vk3 (Fab, V domains shown)
VH: B7 VH with S23T, M49I
VL: B7 VL with F87Y

Molecular target: T1, cynomolgus monkey (Macaca fascicularis) …
Assay: ELISA, coated recombinant TfR1, unconjugated Fab
Method: (§1) To measure binding of humanized anti-TfR antibodies to TfR1, ELISAs were conducted. High binding, black, flat bottom, 96 well plates (Corning# 3925) were first coated with 100 µL/well of recombinant huTfR1 at 1 µg/mL in PBS and incubated at 4° C. overnight. Wells were emptied and residual liquid was removed. Blocking was conducted by adding 200 µL of 1%BSA (w/w) in PBS to each well. Blocking was allowed to proceed for 2 hours at room temperature on a shaker at 300 rpm. After blocking, liquid was removed and wells were washed three times with 300 µL of TBST. Anti-TfR1 antibodies were then added in 0.5% BSA/TBST in triplicate in an 8 point serial dilution (dilution range 5 µg/mL- 5 ng/mL). A positive control and isotype controls were also included on the ELISA plate. The plate was incubated at room temperature on an orbital shaker for 60 minutes at 300 rpm, and the plate was washed three times with 300 µL of TBST. Anti-(H+L)IgG-A488 (1:500) (Invitrogen #A11013) was diluted in 0.5% BSA in TBST, and 100 µL was added to each well. The plate was then allowed to incubate at room temperature for 60 minutes at 300 rpm on orbital shaker. The liquid was removed and the plate was washed four times with 300 µL of TBST. Absorbance was then measured at 495 nm excitation and […] (with a 15 nm bandwidth) on a plate reader. Data was recorded and analyzed for EC₅₀. […] ELISA measurements were conducted using cynomolgus monkey (Macaca fascicularis) TfR1 (cTfR1) according to the same protocol described above for hTfR1, and results are shown in FIGS. 9B, 9D, and 9F.
With B1 the EC50 was 3.3 nM. For B2, the EC50 was 3.5 nM. Binder B3 has an EC50 of 2.1 nM. In the case of B4, the EC50 is reported as 156 nM. Binder B5 has an EC50 of 122 nM. B6 was tested, and the EC50 was 398 nM. B7 gave an EC50 of 9.9 nM. Binder B8 has an EC50 of 4.7 nM. Work on B9 yielded an EC50 of 1.4 nM.

Molecular target: T1, cynomolgus monkey (Macaca fascicularis) …
Assay: ELISA, coated recombinant TfR1, Fab-ASO300 conjugate
B10 showed an EC50 of 3.3 nM. B11 gave an EC50 of 10.2 nM. With B12 the EC50 was 2.3 nM. B13 was tested, and the EC50 was 4.7 nM. B14 showed an EC50 of 7.6 nM. Work on B15 yielded an EC50 of 7.8 nM. For B16, the EC50 was 2.9 nM. B17 was tested, and the EC50 was 2.1 nM.

Molecular target: T1, cynomolgus monkey (Macaca fascicularis) …
Assay: ELISA, Fab-ASO300 conjugate
In the case of B10, the EC50 is reported as 13.9 nM. B11 was tested, and the EC50 was 10.2 nM. B13 gave an EC50 of 5.12 nM. B14 showed an EC50 of 7.59 nM. B15 showed an EC50 of 4.1 nM. B16 gave an EC50 of 2.26 nM. B17 gave an EC50 of 1.85 nM.

Molecular target: T1, cynomolgus monkey (Macaca fascicularis) …
Assay: ELISA, d0
Method: as §1
With B1 the EC50 was 3.3 nM. Binder B2 has an EC50 of 3.5 nM. B3 gave an EC50 of 2.1 nM. In the case of B4, the EC50 is reported as 156 nM. In the case of B5, the EC50 is reported as 122 nM. B6 showed an EC50 of 398 nM. B7 showed an EC50 of 9.9 nM. B8 was tested, and the EC50 was 4.7 nM. B9 was tested, and the EC50 was 1.4 nM.

Molecular target: T1, cynomolgus monkey (Macaca fascicularis) …
Assay: ELISA, d9 (after 9 days at 40 C)
For B1, the EC50 was 0.26 nM. With B2 the EC50 was 0.63 nM. B3 showed an EC50 of 0.69 nM. B4 showed an EC50 of 128 nM. In the case of B5, the EC50 is reported as 878 nM. B6 gave an EC50 of 248 nM. B7 was tested, and the EC50 was 19.5 nM. B8 was tested, and the EC50 was 15.6 nM. B18 gave an EC50 of 16.4 nM. B9 gave an EC50 of 5.01 nM.
